Assay results as given in publication PMC2927720.

Key:
[1] = target: rGrh (Grainyhead, full-length recombinant) (UniProt P13002-2 1-1032); test: EMSA
[2] = target: rZld (Zelda, full-length recombinant) (UniProt Q9VWC6 1-1596); test: EMSA
Chain of rZld (Zelda, full-length recombinant) (Q9VWC6 whole entry): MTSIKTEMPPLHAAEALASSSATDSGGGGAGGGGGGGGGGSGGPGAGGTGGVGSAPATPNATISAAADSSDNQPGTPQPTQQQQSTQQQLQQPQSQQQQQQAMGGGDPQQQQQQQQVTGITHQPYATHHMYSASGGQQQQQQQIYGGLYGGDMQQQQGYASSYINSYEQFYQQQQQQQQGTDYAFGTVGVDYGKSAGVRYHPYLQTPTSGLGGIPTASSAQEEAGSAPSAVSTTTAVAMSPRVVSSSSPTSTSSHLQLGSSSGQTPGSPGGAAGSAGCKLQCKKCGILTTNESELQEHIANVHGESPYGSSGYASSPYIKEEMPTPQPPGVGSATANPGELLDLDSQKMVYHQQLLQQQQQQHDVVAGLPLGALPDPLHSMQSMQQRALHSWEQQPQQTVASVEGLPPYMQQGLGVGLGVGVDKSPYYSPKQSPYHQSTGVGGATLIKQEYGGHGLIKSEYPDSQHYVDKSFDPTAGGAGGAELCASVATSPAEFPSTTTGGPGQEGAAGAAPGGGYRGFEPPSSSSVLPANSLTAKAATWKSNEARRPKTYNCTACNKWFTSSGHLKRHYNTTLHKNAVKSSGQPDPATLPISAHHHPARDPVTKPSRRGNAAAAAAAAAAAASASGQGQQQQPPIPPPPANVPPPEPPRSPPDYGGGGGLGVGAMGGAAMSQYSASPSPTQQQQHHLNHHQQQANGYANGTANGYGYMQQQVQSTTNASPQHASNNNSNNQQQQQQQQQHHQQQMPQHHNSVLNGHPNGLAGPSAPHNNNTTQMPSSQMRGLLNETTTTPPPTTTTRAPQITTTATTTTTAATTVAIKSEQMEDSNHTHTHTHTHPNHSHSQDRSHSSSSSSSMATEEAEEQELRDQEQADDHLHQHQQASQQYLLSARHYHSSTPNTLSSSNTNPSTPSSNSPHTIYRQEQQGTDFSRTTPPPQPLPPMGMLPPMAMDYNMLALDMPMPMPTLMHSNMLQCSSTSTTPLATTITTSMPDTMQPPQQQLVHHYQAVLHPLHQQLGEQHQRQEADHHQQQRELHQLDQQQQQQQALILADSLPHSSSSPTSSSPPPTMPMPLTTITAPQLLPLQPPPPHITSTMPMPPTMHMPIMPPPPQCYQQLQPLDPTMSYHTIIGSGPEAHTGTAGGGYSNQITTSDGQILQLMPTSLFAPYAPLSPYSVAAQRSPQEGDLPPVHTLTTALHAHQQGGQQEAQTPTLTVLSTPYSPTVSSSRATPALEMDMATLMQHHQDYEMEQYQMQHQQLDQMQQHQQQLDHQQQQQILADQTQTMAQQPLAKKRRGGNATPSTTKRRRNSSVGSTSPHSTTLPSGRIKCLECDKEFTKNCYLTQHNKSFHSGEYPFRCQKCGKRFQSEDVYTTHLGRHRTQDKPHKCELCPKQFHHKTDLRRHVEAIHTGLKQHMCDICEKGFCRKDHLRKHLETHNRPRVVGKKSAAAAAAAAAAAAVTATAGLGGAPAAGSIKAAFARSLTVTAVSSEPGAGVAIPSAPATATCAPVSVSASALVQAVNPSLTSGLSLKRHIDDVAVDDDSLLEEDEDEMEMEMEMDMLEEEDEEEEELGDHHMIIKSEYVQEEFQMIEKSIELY

B1: CAGGTAG probe (dsDNA)
DNA 1: CTATTCAGGTAGACACTGTA
DNA 2: TACAGTGTCTACCTGAATAG
Question: Does B1 bind [1]?
Answer: Result: binds

Question: Does B1 bind [2]?
Answer: Result: binds

B2: CAGGCAG probe (dsDNA)
DNA 1: CTATTCAGGCAGACACTGTA
DNA 2: TACAGTGTCTGCCTGAATAG
Question: Does B2 bind [1]?
Answer: Result: binds
